Measurements from patent US20230056252A1 (Gilead, published 2023).
Residue numbers refer to the chain shown, from its start. Names and notes keep the numbering of the source.

Assays:
[1] = target: CD3 on rhesus monkey T cells in PBMCs (rhesus monkey); assay: flow cytometry on PBMCs, % anti-huIgG+ CD4+ cells, donor rh 3483
[2] = target: T1, CD3 expressed on cell-surface of primary human T cells (human, UniProt P07766 23-207; P04234 22-171); assay: flow cytometry on PBMCs, % anti-huIgG+ CD8+ cells, donor hu 340
T1 construct: also called cell-surface CD3; human CD3
T1 sequence (P07766 23-207 limits assumed, chain 1 of 2): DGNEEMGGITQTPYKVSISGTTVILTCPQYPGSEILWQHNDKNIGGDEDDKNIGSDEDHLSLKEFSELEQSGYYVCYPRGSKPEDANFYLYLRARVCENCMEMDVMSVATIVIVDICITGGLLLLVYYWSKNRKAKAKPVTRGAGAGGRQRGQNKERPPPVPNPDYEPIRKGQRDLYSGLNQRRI
T1 sequence (P04234 22-171 limits assumed, chain 2 of 2): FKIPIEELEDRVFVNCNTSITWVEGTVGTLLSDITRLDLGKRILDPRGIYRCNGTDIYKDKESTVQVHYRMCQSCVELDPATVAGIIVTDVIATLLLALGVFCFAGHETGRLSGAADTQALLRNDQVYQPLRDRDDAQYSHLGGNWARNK
Protocol: (§1) Briefly, PBMCs from healthy human donors and healthy rhesus or cynomolgus monkey donors were incubated with different concentrations of HIV×CD3 bispecific molecules for 1 hour at RT. […] Cells were then washed, fixed/permeabilized, and analyzed on BD LSRFortessa. The percentage of α-huIgG-APC-positive CD4+ and CD8+ T cells and the mFI of the α-huIgG-APC of CD4+ and CD8+ cells were collected, and data analyzed using GraphPad Prism.

[3] = target: T1, CD3 expressed on cell-surface of …; assay: flow cytometry on PBMCs, % anti-huIgG+ CD8+ cells, donor hu 151
Protocol: as §1

[4] = target: T1, CD3 expressed on cell-surface of …; assay: flow cytometry on PBMCs, % anti-huIgG+ CD4+ cells, donor hu 151
[5] = target: CD3 on rhesus monkey T cells in PBMCs (rhesus monkey); assay: flow cytometry on PBMCs, % anti-huIgG+ CD8+ cells, donor rh 3563
[6] = target: T1, CD3 expressed on cell-surface of …; assay: flow cytometry on PBMCs, % anti-huIgG+ CD4+ cells, donor hu 340
Protocol: as §1

[7] = target: CD3 on rhesus monkey T cells in PBMCs (rhesus monkey); assay: flow cytometry on PBMCs, % anti-huIgG+ CD4+ cells, donor rh 3563
[8] = target: CD3 on rhesus monkey T cells in PBMCs (rhesus monkey); assay: flow cytometry on PBMCs, % anti-huIgG+ CD8+ cells, donor rh 3483
[9] = target: T1, CD3 expressed on cell-surface of …; assay: flow cytometry on human PBMCs, CD4+ cells, donor 3761
Protocol: (§2) Briefly, peripheral blood mononuclear cells (PBMCs) were incubated with different concentrations of HIV×CD3 bispecific molecules for 1 hour at RT. […] Cells were then washed, fixed/permeabilized, and analyzed using BD LSRFortessa according to the manufacturer's protocol. The percentage of α-huIgG-APC-positive CD4+ and CD8+ T cells and the mean fluorescence intensity of the α-huIgG-APC of CD4+ and CD8+ cells were collected, and data analyzed using GraphPad Prism.
(§3) Binding experiments were performed using PBMCs from two healthy human donors.

[10] = target: T1, CD3 expressed on cell-surface of …; assay: flow cytometry on human PBMCs, CD4+ cells, donor 4574
Protocol: as §2, §3

[11] = target: T1, CD3 expressed on cell-surface of …; assay: flow cytometry on human PBMCs, CD8+ cells, donor 3761
Protocol: as §2, §3

[12] = target: T1, CD3 expressed on cell-surface of …; assay: flow cytometry on human PBMCs, CD8+ cells, donor 4574
Protocol: as §2, §3

[13] = target: T1, CD3 expressed on cell-surface of …; assay: cell-based or functional assay
[14] = target: T2, MabSelect SuRe (engineered Protein A); assay: 500 ml Expi293 expression, MabSelect SuRe capture and cation exchange; purified homodimer yield relative to parent
T2 construct: also called MabSelect SuRe column
Protocol: 500 ml of Expi293 cells were transfected with 0.5 mg DNA encoding selected huSP34 scFv-Fc Protein A knockout variants according to manufacturer's protocol. Four days post transfection, the cell-free clarified supernatant was collected and loaded to a MabSelect™ SuRe™ (Cytiva Life Sciences) column. Afterwards the column was washed with a low salt buffer of 25 mM Tris HCl pH 7.5, 25 mM NaCl for 10 column volumes (CV), then high salt wash of 25 mM Tris HCl pH 7.5, 500 mM NaCl for 5CV to remove non-specific binding, and finally washed with a low salt wash of 25 mM Tris HCl pH 7.5, 25 mM NaCl for 10CV. To elute the antibody, an isocratic elution step of 100 mM sodium acetate pH 3.7 was performed. The eluted pool was neutralized to pH 6.0 with 1 M Tris HCl pH 9.0, and subjected to a cation ion purification, HiTrap SP HP (Cytiva Life Sciences) to further remove impurities. The cation captured protein was washed with 10 mM sodium phosphate pH 7.0 for 10CV, then eluted in 0-30% gradient of 10 mM sodium phosphate pH 7.0, 1M NaCl for 50CV to separate the desired two targeting arm antibody (heterodimer) from the one targeted arm antibody (homodimer). Followed with gradient elution from 30-100% of 10 mM sodium phosphate pH 7.0, 1 M NaCl for 10CV to remove aggregation or homodimer in higher isoelectric point (pI). All proteins were formulated into 20 mM histidine pH 5.8 by dialysis, added additive of sucrose/tween-80, sterile filtered, and stored at 4° C. Concentration of the formulated protein was measured by A280. Purity was assessed as percent monodispersed by analytical size-exclusion chromatography. Identity of the bispecific antibody was determined by Mass Spec (MS).

Chain of CD3 on rhesus monkey T cells in PBMCs (rhesus monkey) (P16003 26-458): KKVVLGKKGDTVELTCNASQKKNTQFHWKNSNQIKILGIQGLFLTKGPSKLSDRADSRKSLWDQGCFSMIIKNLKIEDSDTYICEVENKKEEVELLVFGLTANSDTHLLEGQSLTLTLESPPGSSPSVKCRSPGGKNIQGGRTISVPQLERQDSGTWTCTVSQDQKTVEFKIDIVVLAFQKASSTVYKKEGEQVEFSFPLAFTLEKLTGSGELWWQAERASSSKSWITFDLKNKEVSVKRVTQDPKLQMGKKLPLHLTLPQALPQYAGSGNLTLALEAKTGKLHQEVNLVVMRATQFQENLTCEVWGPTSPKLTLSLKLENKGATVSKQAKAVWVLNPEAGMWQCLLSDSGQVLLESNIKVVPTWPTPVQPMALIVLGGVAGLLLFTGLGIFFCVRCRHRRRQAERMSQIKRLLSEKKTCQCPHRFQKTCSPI

B1: hPGT121.66 AAS + W/huSP34.3.8 scFv AAS + SAV + R (bispecific antibody, human IgG1, lambda, L234A L235A)
chain: EVQLVESGGGLVQPGGSLRLSCAASGFTFNTYAMNWVRQAPGKGLEWVGRIRSKYNNYATYYADSVKGRFTISRDDSKNSLYLQMNSLRTEDTAVYYCVRHGNFGHSYVSWFAYWGQGTLVTVSSGGGGSGGGGSGGGGSGGGGSQAVVTQEPSLTVSPGGTVTLTCGSSTGAVTTGHYANWVQQKPGQAPRGLIGGTNKRAPGVPARFSGSLLGGKAALTISGAQPEDEAEYYCALWYSNRWVFGGGTKLTVLEPKSSDKTHTCPPCPAPEAAGGPSVFLFPPKPKDTLMISRTPEVTCVVVDVSHEDPEVKFNWYVDGVEVHNAKTKPREEQYNSTYRVVSVLTVLHQDWLNGKEYKCKVSNKALPASIEKTISKAKGQPREPQVYTLPPSREEMTKNQVSLSCAVKGFYPSDIAVEWESNGQPENNYKTTPPVLDSDGSFFLVSKLTVDKSRWQQGNVFSCSVMHEALHNRYTQKSLSLSPGK
heavy: QMQLQESGPGLVKPSETLSLTCSVSGASISDSYWSWIRRSPGKGLEWIGYVHKSGDTNYNPSLKSRVHLSLDTSKNQVSLSLTGVTAADSGKYYCARTLHGRRIYGIVAFNEWFTYFYMDVWGTGTQVTVSSASTKGPSVFPLAPSSKSTSGGTAALGCLVKDYFPEPVTVSWNSGALTSGVHTFPAVLQSSGLYSLSSVVTVPSSSLGTQTYICNVNHKPSNTKVDKKVEPKSCDKTHTCPPCPAPEAAGGPSVFLFPPKPKDTLMISRTPEVTCVVVDVSHEDPEVKFNWYVDGVEVHNAKTKPREEQYNSTYRVVSVLTVLHQDWLNGKEYKCKVSNKALPASIEKTISKAKGQPREPQVYTLPPSREEMTKNQVSLWCLVKGFYPSDIAVEWESNGQPENNYKTTPPVLDSDGSFFLYSKLTVDKSRWQQGNVFSCSVMHEALHNHYTQKSLSLSPGK
light: not shown
EC50 [1]: 0.02 µg/mL
EC50 [2]: 0.06 µg/mL
EC50 [3]: 0.04 µg/mL
EC50 [4]: 0.03 µg/mL
EC50 [5]: 0.08 µg/mL
EC50 [6]: 0.05 µg/mL
EC50 [7]: 0.02 µg/mL
EC50 [8]: 0.04 µg/mL

B2: hPGT121.66 AAS + W/huSP34.3.4 scFv AAS + SAV + RF (bispecific antibody, human IgG1, lambda, L234A L235A)
chain: B1 chain with G177S, N199S, G204W, V205T, I222L, N241A, R242L, Y475F
heavy: B1 heavy
light: not shown
notes: also called 258
EC50 [9]: 5.1 µg/mL
EC50 [10]: 5.7 µg/mL
EC50 [11]: 1.3 µg/mL
EC50 [12]: 4.8 µg/mL

B3: hPGT121.66 AAS + W/huSP34.3.6scFv AAS + SAV + RF (bispecific antibody, human IgG1, lambda, L234A L235A)
chain: B1 chain with E152P, N199S, K200N, L214S, N241A, Y475F
heavy: B1 heavy
light: not shown
notes: also called 259
EC50 [9]: 0.65 µg/mL
EC50 [10]: 1.4 µg/mL
EC50 [11]: 0.48 µg/mL
killing EC50, primary HIV-infected CD4+ cells, PBMC effector cells, isolate 657 [13]: 2.37 µg/mL
killing EC50, primary HIV-infected CD4+ cells, PBMC effector cells, isolate 7552 [13]: 0.123 µg/mL
EC50 [12]: 1.1 µg/mL

B4: hPGT121.66 AAS + W/huSP34.3.13scFv AAS + SAV + R (bispecific antibody, human IgG1, lambda, L234A L235A)
chain: B1 chain with N199S, K200N
heavy: B1 heavy
light: not shown
EC50 [1]: 0.06 µg/mL
EC50 [2]: 0.14 µg/mL
EC50 [3]: 0.09 µg/mL
EC50 [4]: 0.07 µg/mL
EC50 [5]: 0.21 µg/mL
EC50 [6]: 0.1 µg/mL
EC50 [7]: 0.08 µg/mL
EC50 [8]: 0.11 µg/mL

B5: hPGT121.66 AAS + W/huSP34.13.8 scFv AAS + SAV + R (bispecific antibody, human IgG1, lambda, L234A L235A)
chain: B1 chain with N30S, D64A, S80T
heavy: B1 heavy
light: not shown
notes: also called 261
EC50 [1]: 0.07 µg/mL
EC50 [2]: 0.1 µg/mL
EC50 [3]: 0.08 µg/mL
EC50 [4]: 0.06 µg/mL
EC50 [5]: 0.2 µg/mL
EC50 [6]: 0.07 µg/mL
EC50 [7]: 0.07 µg/mL
EC50 [8]: 0.13 µg/mL

B6: hPGT121.66 AAS + W/huSP34.34.3 scFv AAS + SAV + R (bispecific antibody, human IgG1, lambda, L234A L235A)
chain: not shown
heavy: B1 heavy
light: not shown
EC50 [1]: 0.93 µg/mL
EC50 [2]: 1.21 µg/mL
EC50 [3]: 1.62 µg/mL
EC50 [4]: 1.41 µg/mL
EC50 [5]: 3.52 µg/mL
EC50 [6]: 1.64 µg/mL
EC50 [7]: 1.48 µg/mL
EC50 [8]: 2.35 µg/mL

B7: hPGT121.66 AAS + W/huSP34.34.10 scFv AAS + SAV + R (bispecific antibody, human IgG1, lambda, L234A L235A)
chain: B1 chain with D64A, R89K, V95M, E152P, L214S
heavy: B1 heavy
light: not shown
EC50 [1]: 0.03 µg/mL
EC50 [2]: 0.08 µg/mL
EC50 [3]: 0.07 µg/mL
EC50 [4]: 0.06 µg/mL
EC50 [5]: 0.16 µg/mL
EC50 [6]: 0.06 µg/mL
EC50 [7]: 0.05 µg/mL
EC50 [8]: 0.1 µg/mL

B8: hPGT121.66 AAS + W/huSP34.34.11 scFv AAS + SAV + R (bispecific antibody, human IgG1, lambda, L234A L235A)
chain: B1 chain with D64A, R89K, V95M, I222L, R242L
heavy: B1 heavy
light: not shown
EC50 [1]: 0.06 µg/mL
EC50 [2]: 0.13 µg/mL
EC50 [3]: 0.1 µg/mL
EC50 [4]: 0.08 µg/mL
EC50 [5]: 0.22 µg/mL
EC50 [6]: 0.09 µg/mL
EC50 [7]: 0.07 µg/mL
EC50 [8]: 0.11 µg/mL

B9: hPGT121.66 AAS + W/huSP34.34.12scFv AAS + SAV + R (bispecific antibody, human IgG1, lambda, L234A L235A)
chain: B1 chain with D64A, R89K, V95M, E152P, G204W, V205T, L214S
heavy: B1 heavy
light: not shown
EC50 [1]: 0.46 µg/mL
EC50 [2]: 0.88 µg/mL
EC50 [3]: 0.85 µg/mL
EC50 [4]: 0.51 µg/mL
EC50 [5]: 1.24 µg/mL
EC50 [6]: 0.57 µg/mL
EC50 [7]: 0.68 µg/mL
EC50 [8]: 0.93 µg/mL

B10: huSP34.14.8 scFv AAS + SAV + R (Fc fusion)
chain: B1 chain with R19S, N30S, D64A, S80T
notes: also called R19S
scFv-Fc Homodimer Yield Relative to WT (e.g. Protein A binding) [14]: 21%

B11: huSP34.19.8 scFv AAS + SAV + R (Fc fusion)
chain: B1 chain with N30S, D64A, S80T, Q84E
notes: also called Q81E
scFv-Fc Homodimer Yield Relative to WT (e.g. Protein A binding) [14]: 86%

B12: huSP34.25.8 scFv AAS + SAV + R (Fc fusion)
chain: B1 chain with N30S, T60A, D64A, G68S, S80T
notes: also called T57A, G65S; T57A + G65S
scFv-Fc Homodimer Yield Relative to WT (e.g. Protein A binding) [14]: 1%

B13: huSP34.26.8 scFv AAS + SAV + R (Fc fusion)
chain: B1 chain with R19S, N30S, T60A, D64A, S80T
notes: also called R19S, T57A; R19S + T57A
scFv-Fc Homodimer Yield Relative to WT (e.g. Protein A binding) [14]: 8%

B14: huSP34.27.8 scFv AAS + SAV + R (Fc fusion)
chain: B1 chain with R19S, N30S, T60E, D64A, S80T
notes: also called R19S, T57E; R19S + T57E
scFv-Fc Homodimer Yield Relative to WT (e.g. Protein A binding) [14]: 8%

B15: huSP34.28.8 scFv AAS + SAV + R (Fc fusion)
chain: B1 chain with R19S, N30S, D64A, G68S, S80T
notes: also called R19S, G65S; R19S + G65S
scFv-Fc Homodimer Yield Relative to WT (e.g. Protein A binding) [14]: 1.5%

B16: huSP34.33.8 scFv AAS + SAV + R (Fc fusion)
chain: B1 chain with N30S, D64A, G68S, S80T, Q84E
notes: also called G65S, Q81E; G65S + Q81E
scFv-Fc Homodimer Yield Relative to WT (e.g. Protein A binding) [14]: 0.7%
